In article PMC5307367 (2017):

Target: T1, recombinant His-tagged wild-type ZPR9 (UniProt Q969S3 1-477)
T1 chain: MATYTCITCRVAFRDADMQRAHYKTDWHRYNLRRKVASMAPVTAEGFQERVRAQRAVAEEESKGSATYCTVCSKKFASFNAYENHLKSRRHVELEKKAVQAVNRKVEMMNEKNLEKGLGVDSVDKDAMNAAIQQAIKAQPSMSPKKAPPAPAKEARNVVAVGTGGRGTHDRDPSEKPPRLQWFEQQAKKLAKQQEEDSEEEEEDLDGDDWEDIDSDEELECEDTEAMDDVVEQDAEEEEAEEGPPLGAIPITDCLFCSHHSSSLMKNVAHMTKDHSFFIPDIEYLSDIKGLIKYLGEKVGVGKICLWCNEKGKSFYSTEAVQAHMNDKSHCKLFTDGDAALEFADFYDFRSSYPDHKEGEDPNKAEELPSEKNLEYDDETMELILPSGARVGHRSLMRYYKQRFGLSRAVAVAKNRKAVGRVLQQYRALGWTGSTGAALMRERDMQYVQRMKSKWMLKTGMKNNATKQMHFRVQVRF
Test: ITC

B1: recombinant His-tagged wild-type MPK38 (enzyme)
chain: MKDYDELLKYYELYETIGTGGFAKVKLACHVLTGEMVAIKIMDKNALGSDLPRVKTEIDALKSLRHQHICQLYHVLETKNKIFMVLEYCPGGELFDYIISQDRLSEEETRVVFRQILSAVAYVHSQGYAHRDLKPENLLFDENHKLKLIDFGLCAKPKGNKDYHLQTCCGSLAYAAPELIQGKSYLGSEADVWSMGILLYVLMCGFLPFDDDNVMALYKKIMRGKYEVPKWLSPSSILLLQQMLQVDPKKRISMRNLLNHPWVMQDYSCPVEWQSKTPLTHLDEDCVTELSVHHRSSRQTMEDLISSWQYDHLTATYLLLLAKKARGKPARLQLLSFSCGTASTTPKSKNLSLEDMSTSDDNCVAGLIDYELCEDKLLAPKTPQVTKHLAESNHAASKSPAPGVRRAVANKLMDKENVCTPKSSVKNEEQFVFSEPKIPVSKNQYKREIPASPTRFPTPAKARAQCLREAPVRTPGNSAGADTLTTGVISPERRCRSMDVDLNQAHMEDTPKKKGTNVFGSLERGLDKVLTALTRNKKKGSARDGPRKRKLHYNVTTTRLVNPDQLLSEIMAILPKKNVDFVQKGYTLKCQTQSDFGKVTMQFELEVCQLQRPDVVGIRRQRLKGDAWVYKRLVEDILSGCKM
In the case of B1, the Ka is reported as 39100 M⁻¹.
